Measurements taken from article doi:10.1101/2022.12.04.519021.
“And” between values parts separate entries of the source, which are not always exact repeats. Equal entries are not always repeated. Where two headings read alike, the source gives them in different places.

Columns and labels:
[1] = target: C-terminally amidated amyloid-beta fragment Aβ1-24-NH2 (human); assay: high-resolution LC-MS
[2] = target: C-terminally amidated amyloid-beta fragment Aβ1-24-NH2 (human); assay: SDS-PAGE and immunoblot
[3] = target: C-terminally truncated amyloid-beta fragment Aβ1-23 (human); assay: SDS-PAGE and immunoblot
[4] = target: C-terminally truncated amyloid-beta fragment Aβ1-25 (human); assay: SDS-PAGE and immunoblot
[5] = target: C-terminally truncated amyloid-beta fragment Aβ1-25 (human); assay: SDS-PAGE and immunoblot; remark: listed apart in the source

**Q.** Which results are given for “C-terminally amidated amyloid-beta fragment Aβ1-24-NH2 (peptide)”?
**A.** stoichiometry N [1]: 3 and 2 and 5; stoichiometry N [2]: 2 and 3

**Q.** With “C-terminally truncated amyloid-beta fragment Aβ1-23 (peptide)” as the substance, how does the stoichiometry N [3] read?
**A.** The stoichiometry N was 3 and 2.

**Q.** How did the stoichiometry N [4] turn out when “C-terminally truncated amyloid-beta fragment Aβ1-25 (peptide)” was run?
**A.** Its stoichiometry N is 2.

**Q.** What about the stoichiometry N [5] of the same substance?
**A.** Its stoichiometry N is 3.
